This note sets out measurements from the nanobody polyreactivity screen of Harvey et al. (2022).

This data set can be described thus: yeast display, Sf9 membrane polyspecificity reagent, FACS + sequencing; frameworks hold sequencing errors. In outline:
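A nanobody's polyreactivity label depends on the gate it was sorted from. Yeast display cells were stained with 10% biotinylated, detergent-solubilized Sf9 membrane reagent for 1 hour at 4 °C, enriched on streptavidin microbeads and sorted by FACS. The low and high (top ~1%) gates were set on anti-HA fluorescence for expression and streptavidin fluorescence for reagent binding.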
As to “QVQLVESGGGLVQAGGSLRLSCAASGITLFYYAMGWYRQAPGKERELVAVISASGGSTYYADSVKGRFTISRDNAKNTVYLQMNSLKPEDTAVYYCAAVAYWRSSSWYYYWGQGTQVTVSS”, the “polyreactivity (PSR sort gate)” value is recorded as “high polyreactivity”.

For the sequence “QVQLVESGGGLVQAGGSLRLSCAASGITLGAYAMGWYRQAPGKERELVAAISRSGGSTYYADSVKGRFTISRDNAKNTVYLQMNSLKPEDTAVYYCNAPRFVSYDYWGQGTQVTVSS”, the “polyreactivity (PSR sort gate)” value is on record as “high polyreactivity”.

As for “QVQLVESGGGLVQAGGSLRLSCAASGITLGRYAMGWYRQAPGKERELVAAISWSGGTTYYADSVKGRFTISRDTAKNTVDLQMNSLKPEDTAGYYCTKESPYRQWGWSYYYWGQGTQVTVSS”, the “polyreactivity (PSR sort gate)” value is on record as “high polyreactivity”.

Turning to “QVQLVESGGGLVQAGGSLRLSCAASGITLGRYSMGLYRQAPGKVRELVAVISDSGGSTYYADSVKGRFTISRDNAKNTVYLQMNSLKPEYTAVYYCARRFDRYPRYYYWGQGTQVTVSS”, the “polyreactivity (PSR sort gate)” value is “high polyreactivity”.

As to “QVQLVESGGGLVQAGGSLRLSCAASGITLRRNTMGWDRQAPGKERELVAAITRSGGSTYYADSVKGRFTISRDNAKNTVYLQMNSLKPEDTAVYYCAKGPSYGGPSHDYWGQGTQVTVSS”, the “polyreactivity (PSR sort gate)” value is listed as “high polyreactivity”.

For “QVQLVESGGGLVQAGGSLRLSCAASGITLTKNAMGWYRQAPGKERELVAGITRGSRTNYADSVKGRFTISRDNAKNSVYLQMNSLIPEDTAVYYCAASYWPYRGPVGGSKMYFWGQGTQVTVSS”, the “polyreactivity (PSR sort gate)” value is reported as “high polyreactivity”.

In the case of “QVQLVESGGGLVQAGGSLRLSCAASGITLYRYVMGWYRQAPGKERELLADISGRGTSTYYADSVKGRFTISRDNAKNTVYLQMNSLNAEDTAVYYCNAEFTKSGALVIPYTYYYAEDYWGQGSQVTVSS”, the “polyreactivity (PSR sort gate)” value is “low polyreactivity”.

Take “QVQLVESGGGLVQAGGSLRLSCAASGITLYYYAMGWYRQAPGKEREFVAAITWRGTNTYYADSVKGRFTISRDNAKNTVYLQMNSLKPEDTAVYYCAADYEQRVADYYYWGQGTQVTVSS”: the “polyreactivity (PSR sort gate)” value is recorded as “low polyreactivity”.

As to “QVQLVESGGGLVQAGGSLRLSCAASGITLYYYTMGWYRQAPGKERELVAAISGSGGSTYYADSVKGRFTISRDNAKNTVYLQMNSLKPEDTAVYYCNTARSLKNHFYKYDYWGHGTQVTVSS”, the “polyreactivity (PSR sort gate)” value is “high polyreactivity”.

As to “QVQLVESGGGLVQAGGSLRLSCAASGITRGSNAMGWYRQAPGTERELVAAITSGSSTYYADSVKGRFTISRDNAKNTVYLQMNSLKPEDTAVYYCAAEWWDVIAPYEYWGQGTQVTVSS”, the “polyreactivity (PSR sort gate)” value was “low polyreactivity”.

For the sequence “QVQLVESGGGLVQAGGSLRLSCAASGITSNSYAMGWYRQAPGKERELVATITSGGSTNYADSVKGRFTISRDNAKNSVYLQMNSLKPEDTAVYYCNREDWLPTQYDYWGQGTQVTVSS”, the “polyreactivity (PSR sort gate)” value is on record as “low polyreactivity”.

For the sequence “QVQLVESGGGLVQAGGSLRLSCAASGITSPAYAMGWYRQAPGKEREFVAAISSSGVSTYYADSVKGRFTISRDNAKNTVYLQMNRLKPEDTAVYYCNTVSWPLSSKYYYWGQGTQVTVSS”, the “polyreactivity (PSR sort gate)” value is recorded as “high polyreactivity”.

On to “QVQLVESGGGLVQAGGSLRLSCAASGITSRPYVMGGYRQAPGKERELVAAISLTGGRTYYADSVKGRFTISRDNAKNTVYLQMNSLKPEDTAVYYCAAKYSNGSGFDYWGQGTQVTVSS”, for which the “polyreactivity (PSR sort gate)” value is listed as “high polyreactivity”.

“QVQLVESGGGLVQAGGSLRLSCAASGITSRQYAMGWYRQAPGKERELVAAISFSGGRTYYADSVKGRFTISRDNAKNTVYLQMNSLKPEDTAVYYCATRNRYSPRDYWGQGTQVTVSS”: the “polyreactivity (PSR sort gate)” value is recorded as “high polyreactivity”.

As to “QVQLVESGGGLVQAGGSLRLSCAASGITSSLNAMGWYRQAPGKERELVAAISWRGGSTYYADSVKGRFTISRDNAKNTVNLRMHSLKPEDTAVYYCNVVKRSFRYDYWGQGTQVTVSS”, the “polyreactivity (PSR sort gate)” value is “high polyreactivity”.

With “QVQLVESGGGLVQAGGSLRLSCAASGITSSYAMGWYRQAPGKERELVAAISRGGSTYYADSVKGRFTISRDNAKNTVYLLLNSLKPEDTAVYYCNKRRYPYGWGQGTLVTVSS”, the “polyreactivity (PSR sort gate)” value is “high polyreactivity”.

Take “QVQLVESGGGLVQAGGSLRLSCAASGITSVVYAMGWYRQAPGKERELVAAISSAGSTYYADSVKGRFTISRDNAKNTVYLQMNSLKPEDTAVYYCAAAGYPQTYLYYYWGQGTQVTVSS”: the “polyreactivity (PSR sort gate)” value is given as “low polyreactivity”.

“QVQLVESGGGLVQAGGSLRLSCAASGITVNSYAMGWYRQAPGKERELVAAISGSGSSTYYADSVKGRFTISRDNAKNTVYLQMNSLKPEDTAVYYCAATGFSSWTYYTHEYWGQGTQVTVSS”: the “polyreactivity (PSR sort gate)” value is reported as “low polyreactivity”.

For the sequence “QVQLVESGGGLVQAGGSLRLSCAASGITVYVNVMGWYRQAPGKERELVAGISYSGGSTYYADSVKGRFTISRDNAKNTVYLQMNSLKPEDTAVYYCAADYWYYGSPVSRPYYYWGQGTQVTVSS”, the “polyreactivity (PSR sort gate)” value is recorded as “high polyreactivity”.

For the sequence “QVQLVESGGGLVQAGGSLRLSCAASGITYYRNAMGWYRQAPGKERELVAAISWSGGRTYYADSVKGRFTISRDNAKNTVYLQMNSLKPEDTAVYYCNKYTHYYDYDYWGQGTQVTVSS”, the “polyreactivity (PSR sort gate)” value is reported as “high polyreactivity”.

With “QVQLVESGGGLVQAGGSLRLSCAASGKIFNNYVMGWYRQAPGKVRELVARIDSGGSTNYADSVKGRFTISRDNAKNTVYLQMNSLKPEDTAVYYCAARKLSSYAYDYWGQGTQVTVSS”, the “polyreactivity (PSR sort gate)” value is listed as “low polyreactivity”.

For the sequence “QVQLVESGGGLVQAGGSLRLSCAASGLIFAEYAMGWYRQAPGKERELVARITSGGSTDYADSVKGRFTISRDNAKNTVYLQMNSLKPEDTALYYCAARYYSQDNNASTASDFDYWGQGTQVTVSS”, the “polyreactivity (PSR sort gate)” value was “low polyreactivity”.

“QVQLVESGGGLVQAGGSLRLSCAASGLIFAHNTMGWYRQATGKERELVAAISATGDGNTYYADSLKGRFTISRDNAKNTVYLQMNSLKPEDTAVYYCNALYYDYYAEYYGESDYWGQGTQVTVSS”: the “polyreactivity (PSR sort gate)” value is recorded as “low polyreactivity”.

In the case of “QVQLVESGGGLVQAGGSLRLSCAASGLIFAWYAMGWYRQAPGKERELVAAITGTGSSTYYADSVKGRFTISRDNAKNTVYLQMNSLKPEDTAVYYCNRGYFNSRTPTFDYWGQGTQVTVSS”, the “polyreactivity (PSR sort gate)” value was “low polyreactivity”.

For the sequence “QVQLVESGGGLVQAGGSLRLSCAASGLIFDINAMGWYRQAPGKERELVAAITWRGGSTYYADSVKGRFTISRDNAKNTVYLQMNSLKPEDTAVYYCAAGWSYRNGVGVGDFYYGYDYWGQGTQVTVSS”, the “polyreactivity (PSR sort gate)” value is given as “high polyreactivity”.

For “QVQLVESGGGLVQAGGSLRLSCAASGLIFDLYAMGWYRQAPGKERELVAAITWSGGSTYYADSVKGRFTISRDNAKNTVYLQMNSLKPEDTAVYYCAAETHLWYDFDYWGQGTQVTVSS”, the “polyreactivity (PSR sort gate)” value is reported as “high polyreactivity”.

As to “QVQLVESGGGLVQAGGSLRLSCAASGLIFDPNTMGWYRQAPGKERELVAAISSGGDTNYADSVKGRFTISRDNAKNTVYLQMNSLKPEDTAVYYCAAERYYFPRSYRYGYWGQGTQVTVSS”, the “polyreactivity (PSR sort gate)” value was “low polyreactivity”.

On to “QVQLVESGGGLVQAGGSLRLSCAASGLIFDSDAMGWYRQAPGKERELVAAITYTGGSTYYADSVKGRFTISRDSAKNTVYLQMNSLKPEDTAVYYCAARRQRDRYGYWGQGTKVTVSS”, for which the “polyreactivity (PSR sort gate)” value is reported as “high polyreactivity”.

“QVQLVESGGGLVQAGGSLRLSCAASGLIFDVNTMGWYRQAPRKERELVAAITGSGGRTYYADSVKGRFTISRDNAKNTVYLQMNSLKPEDNAVYYCNARHPASGDLYRMDYWGQGTQVTVSS”: the “polyreactivity (PSR sort gate)” value is on record as “low polyreactivity”.

“QVQLVESGGGLVQAGGSLRLSCAASGLIFDYNAMGWYRQAPGKERELVAAISSGGSTYYADSVKGRFTISRDNAKNTVYLQMNSLKPEDTAVYYCATRRQAQYTRYYGSRQFYYWGQGTQVTVSS”: the “polyreactivity (PSR sort gate)” value is “high polyreactivity”.

For “QVQLVESGGGLVQAGGSLRLSCAASGLIFDYNAMGWYRQAPGKEWELVAAISSGGSTYYADSVKGRFTISRDNANNTVYLQMNSLKPEDTAVYYCAARFSSYVRRYYYWGQGTQVTVSS”, the “polyreactivity (PSR sort gate)” value is on record as “high polyreactivity”.

For the sequence “QVQLVESGGGLVQAGGSLRLSCAASGLIFDYYAMGWYRQAPGKERELVAAISSGGDTTYADSVKGRFTISRDNAKNTVYLQMNSLKPEDTAVYYCAADRWIPVYILGADGYDYWGQGTQVTVSS”, the “polyreactivity (PSR sort gate)” value is “low polyreactivity”.

For the sequence “QVQLVESGGGLVQAGGSLRLSCAASGLIFFQNAMGWYRQAPGKERELVAAITWSGGRTYYADSVKGRFTISRDNAKNTVYLQMKSLKPEDTEVYYCAADYDYPDYYAPSWPGYNYWGQGTQVTVSS”, the “polyreactivity (PSR sort gate)” value is reported as “low polyreactivity”.

Take “QVQLVESGGGLVQAGGSLRLSCAASGLIFFSYAMGWYRQAPGKERELVAAISRRGGRTYYADSVKGRFTISRDNAKNTVYLQMNSLKPEDTAASYCATYVASHRGDRTYDHWGQCTQVTVSS”: the “polyreactivity (PSR sort gate)” value was “low polyreactivity”.

“QVQLVESGGGLVQAGGSLRLSCAASGLIFFTYAMGWYRQAPGKERELVAAITGRGGRTYYADSVKGRFTISRDNAKNTVYLQMNSLKPEDTAVYYCNAEYRYYQKTPGRYTNVEYDYWGQGTQVTVSS”: the “polyreactivity (PSR sort gate)” value is “low polyreactivity”.

On to “QVQLVESGGGLVQAGGSLRLSCAASGLIFFVYAMGWYRQAPGKERELVAAISASGVSTNYADSVKGRFTISRDNAKNTVYLQMNSLKPEDTAVYYCAAGRGGYGYWGQGTQVTVSS”, for which the “polyreactivity (PSR sort gate)” value is on record as “low polyreactivity”.

Regarding “QVQLVESGGGLVQAGGSLRLSCAASGLIFGGNAMGWYRQAPGKERELVAAISRTGGRTYYADSVKGRFTISRDNAKNTVFLQMNSLKPEDTAVYYCAAAAQRPEGYYWGQGTQVTVSS”, the “polyreactivity (PSR sort gate)” value is “high polyreactivity”.

Regarding “QVQLVESGGGLVQAGGSLRLSCAASGLIFGGNAMGWYRQAPGKERELVAAITYRTGSTYYADSVKGRFTISRDNAKNTVYLQMNSLKPEDTAVYYCAAAVSLGYPVAFYYWGQGTQVTVSS”, the “polyreactivity (PSR sort gate)” value is recorded as “low polyreactivity”.

Take “QVQLVESGGGLVQAGGSLRLSCAASGLIFGRYAMGWYRPAPGKERELVAAITNSDGDTYYADSVKGRFTISRDNAKNTVYLQMNSLKPEDTAVYYCNADDALRQTSDYNYWGQGTQVTVSS”: the “polyreactivity (PSR sort gate)” value is given as “low polyreactivity”.

As to “QVQLVESGGGLVQAGGSLRLSCAASGLIFGWYAMGWYRQAPGKEREFVASIRYGGGSTYYADSVKGRFTISRDNAKKTVYLQMNSLKPEDTAVYYCAAELSVDKYDYWGQGTQETVSS”, the “polyreactivity (PSR sort gate)” value is reported as “low polyreactivity”.

Regarding “QVQLVESGGGLVQAGGSLRLSCAASGLIFGYYALGWYRQAPGKDRELVAAINSGGSTYYADTVKGRFTISRDNAKNTVYLQMNSLKPEDTPVYNCAARYYSEYDYWGHGTQVTVSS”, the “polyreactivity (PSR sort gate)” value is “low polyreactivity”.
